Measured values as given in PMC8998196, “A Second Gamma-Glutamylpolyamine Synthetase, GlnA2, Is Involved in Polyamine Catabolism in Streptomyces coelicolor” (International Journal of Molecular Sciences, 2022).

How the values were obtained:
GlnA3 (His-GlnA3) = biological target: T1, GlnA3 (His-GlnA3) (Streptomyces coelicolor, UniProt Q9KZC7); experiment: phosphate release (molybdate) modified GS assay; format: biochemical; details: 50 mM substrate, 10 µg enzyme, co-substrates glutamate and ATP, 30 °C, 5 min
T1 construct: His-tagged GlnA3
T1 sequence (Q9KZC7 1-466): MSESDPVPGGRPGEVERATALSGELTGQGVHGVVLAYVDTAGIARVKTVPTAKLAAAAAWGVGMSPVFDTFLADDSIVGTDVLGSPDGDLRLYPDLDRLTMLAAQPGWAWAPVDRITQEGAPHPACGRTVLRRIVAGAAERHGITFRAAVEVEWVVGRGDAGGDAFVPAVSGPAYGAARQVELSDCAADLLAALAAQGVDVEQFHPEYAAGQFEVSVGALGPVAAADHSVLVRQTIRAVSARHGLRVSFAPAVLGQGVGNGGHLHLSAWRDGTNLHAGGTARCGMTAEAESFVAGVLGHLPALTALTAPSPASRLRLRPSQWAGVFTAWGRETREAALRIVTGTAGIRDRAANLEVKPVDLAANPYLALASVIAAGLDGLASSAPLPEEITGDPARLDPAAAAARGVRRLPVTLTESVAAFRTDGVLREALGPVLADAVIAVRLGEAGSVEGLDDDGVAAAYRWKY

[1] = substrate: N[C@@H](CCC(=O)O)C(=O)O; experiment: phosphate release (molybdate) modified GS assay, Michaelis-Menten fit; format: biochemical, Streptomyces coelicolor; details: polyamine and ATP as co-substrates, Mg2+, 30 °C, 5 min, L form not given
[2] = substrate: NCCCCN; experiment: as above; format: biochemical, Streptomyces coelicolor; details: co-substrates glutamate and ATP, Mg2+, 30 °C, 5 min
[3] = substrate: Nc1ncnc2c1ncn2[C@@H]1O[C@H](COP(=O)(O)OP(=O)(O)OP(=O)(O)O)[C@@H](O)[C@H]1O; experiment: as above; format: biochemical, Streptomyces coelicolor; details: polyamine and glutamate as co-substrates, Mg2+, 30 °C, 5 min

Molecule	phosphate release (molybdate) modified GS assay (GlnA3 (His-GlnA3))	Km [1]	Km [2]	Km [3]
NCCCCNCCCN [spermidine]	GlnA3 demonstrated a significant specificity towards spermidine and spermine, compared with GlnA2	–	–	–
NCCCNCCCCNCCCN [spermine]	GlnA3 demonstrated a significant specificity towards spermidine and spermine, compared with GlnA2	–	–	–
GlnA2 (His-GlnA2) (Streptomyces coelicolor A3(2)) (protein, dodecamer only modelled) MDKQQEFVIRTLEERDIRFVRLWFTDVLGFLKSVAVAPAELEQAFDEGIGFDGSAIEGFARVYESDMIAKPDPSTFQVLPWRAEAPGTARMFCDILMPDGSPSFADPRYVLKRALARTSDLGFTFYTHPEIEFFLLKDKPVDGSVPTPADNSGYFDHTPQNIGMDFRRQAITMLESMGISVEFSHHEGAPGQQEIDLRYADALSTADNVMTFRLVMKQVALEQGLQATFMPKPFSEYPGSGMHTHLSLFEGDRNAFYESGAEYQLSKVGRSFIAGLLRHAAEISAVTNQWVNSYKRIWGGTERTAGAGGEAPSYICWGHNNRSALVRVPMYKPGKTGSARVEVRSIDSGANPYLTYAVLLAAGLKGIEEGYELPPGAEDDVWALSDAERRALGIEPLPQNLGEALALMERSDLVAETLGEHVFDFFLRNKRQEWEEYRSQVTAFELRKSLPVL	–	1060 ± 200 µM	550 ± 100 µM	130 ± 100 µM
